Results reported in publication PMC3836802, “LOV Takes a Pick: Thermodynamic and Structural Aspects of the Flavin-LOV-Interaction of the Blue-Light Sensitive Photoreceptor YtvA from Bacillus subtilis” (PLoS ONE, 2013).
Residue numbers refer to the chain shown, from its start.

What was measured:
[1] = target: T1, YLOV (Apo-YLOV; LOV domain of YtvA, aa 1-128) (Bacillus subtilis, UniProt O34627, M1G); test: isothermal titration calorimetry; assay type: binding; conditions: 25 °C; 20 mM Tris-HCl pH 7.5, 150 mM NaCl, 500 µM TCEP; dark; apoprotein titrated into flavin; single-site global fit; brackets 95% confidence interval
T1 construct: gene pfyP; LOV domain with N-terminal cap, aa 1-128; apo form in monomer-dimer equilibrium; 15N-labelled for ITC
T1 sequence (O34627 1-128 M1G): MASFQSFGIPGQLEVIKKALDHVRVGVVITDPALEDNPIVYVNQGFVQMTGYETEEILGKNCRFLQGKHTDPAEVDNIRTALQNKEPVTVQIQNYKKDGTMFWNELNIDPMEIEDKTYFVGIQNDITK
From the text: isothermal titration calorimetry on YLOV (Apo-YLOV; LOV domain of YtvA, aa 1-128)

[2] = target: YtvA (Bacillus subtilis) (UniProt O34627); conditions: cited from earlier work
[3] = target: YtvA LOV domain 21-147 (Bacillus subtilis) (UniProt O34627); conditions: cited from earlier work
[4] = target: the molecule itself; test: AUC; sedimentation velocity, 45,000 rpm, 25 °C, absorbance at 280 nm; Apo-YLOV at 17.5, 35 and 70 µM in buffer G (20 mM Tris-HCl pH 7.5, 150 mM NaCl, 500 µM TCEP); c(S) analysis with Sedfit; dimer to monomers; the KD is called only an estimate
[5] = target: the molecule itself; test: AUC; sedimentation velocity, 45,000 rpm, 20 °C, absorbance at 280 nm; Apo-YtvA at 15, 30 and 60 µM in buffer H (20 mM K-phosphate pH 6.5, 50 mM NaCl, 5 mM DTT, 0.1% azide); c(S) analysis with Sedfit; dimer to monomers

Q: With Cc1cc2nc3c(=O)[nH]c(=O)nc-3n(C[C@H](O)[C@H](O)[C@H](O)COP(=O)(O)OP(=O)(O)OC[C@H]3O[C@@H](n4cnc5c(N)ncnc54)[C@H](O)[C@@H]3O)c2cc1C [FAD] as the molecule, how does the Kd [1] read?
A: 224 nM

Q: For Cc1cc2nc3c(=O)[nH]c(=O)nc-3n(C[C@H](O)[C@H](O)[C@H](O)COP(=O)(O)O)c2cc1C [FMN], which Kd [1] is on record?
A: 715 nM

Q: With Cc1cc2nc3c(=O)[nH]c(=O)nc-3n(C[C@H](O)[C@H](O)[C@H](O)CO)c2cc1C [RF] as the molecule, how does the Kd [1] read?
A: 351 nM

Q: With YtvA (from UniProt O34627) as the molecule, how does the Kd [2] read?
A: < 300 nM

Q: For “YtvA LOV domain 21-147 (from UniProt O34627)”, which Kd [3] is on record?
A: < 200 nM

B1: Apo-YLOV (deflavinated extended LOV domain of YtvA, aa 1 – 128) (domain or fragment, Bacillus subtilis, UniProt O34627 1-128, looked up)
chain: T1 sequence (O34627 1-128 M1G) with M1G
notes: YtvA, blue-light photoreceptor of Bacillus subtilis, residues 1-128 (N-terminal cap and LOV domain); TEV cleavage leaves a Gly at the N-terminus; the forward primer reads Gly-Ala-Ser-Phe-Gln, so the Gly stands in the place of Met1; also called YtvA-LOV domain; not shown: His tag, N-terminal, cleaved
Q: What does the source list for B1?
A: Kd [4]: ~14 µM; stoichiometry N [4]: 2

B2: Apo-YtvA (deflavinated full length YtvA, aa 1 – 261) (natural protein, Bacillus subtilis, UniProt O34627 1-261, looked up)
chain: GASFQSFGIPGQLEVIKKALDHVRVGVVITDPALEDNPIVYVNQGFVQMTGYETEEILGKNCRFLQGKHTDPAEVDNIRTALQNKEPVTVQIQNYKKDGTMFWNELNIDPMEIEDKTYFVGIQNDITKQKEYEKLLEDSLTEITALSTPIVPIRNGISALPLVGNLTEERFNSIVCTLTNILSTSKDDYLIIDLSGLAQVNEQTADQIFKLSHLLKLTGTELIITGIKPELAMKMNKLDANFSSLKTYSNVKDAVKVLPIM
notes: YtvA, blue-light photoreceptor of Bacillus subtilis, full length, residues 1-261 (LOV domain aa 21-126, Jα-helix aa 127-147, STAS domain aa 148-261); Met1 replaced by the Gly left after TEV cleavage; source: TEV cleavage; not shown: His tag, N-terminal, cleaved
Q: Which “stoichiometry N” value [5] does the source give for B2 here?
A: 2
